Kd data for four molecules are collected here from publication doi:10.1101/2022.04.02.486817 (bioRxiv, 2022).

The target of one assay is AP2 α-appendage (UniProt P17427 702-938). Description: ITC. In general terms: Isothermal titration calorimetry measures the heat released or taken up as one component is titrated into another.
Another assay deals with T1, Cμ2 (UniProt P84092 158-435).
T1 sequence (looked up): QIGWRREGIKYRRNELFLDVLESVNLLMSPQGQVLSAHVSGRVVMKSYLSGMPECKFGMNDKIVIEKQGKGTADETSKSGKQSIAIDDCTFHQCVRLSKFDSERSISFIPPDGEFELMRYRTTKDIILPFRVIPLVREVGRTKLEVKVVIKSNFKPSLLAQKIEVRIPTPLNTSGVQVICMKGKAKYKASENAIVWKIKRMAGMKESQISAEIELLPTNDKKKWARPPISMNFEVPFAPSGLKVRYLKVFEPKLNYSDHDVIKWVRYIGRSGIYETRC
Nature of the assay: ITC.

The target of a further assay is recombinant AP2 core (UniProt P18484 1-621; P63010 1-591; P84092 1-435; P62743 1-142). Description: BLI. (Biolayer interferometry detects binding as a change in optical thickness at a sensor tip.)

Chain of AP2 α-appendage (P17427 702-938): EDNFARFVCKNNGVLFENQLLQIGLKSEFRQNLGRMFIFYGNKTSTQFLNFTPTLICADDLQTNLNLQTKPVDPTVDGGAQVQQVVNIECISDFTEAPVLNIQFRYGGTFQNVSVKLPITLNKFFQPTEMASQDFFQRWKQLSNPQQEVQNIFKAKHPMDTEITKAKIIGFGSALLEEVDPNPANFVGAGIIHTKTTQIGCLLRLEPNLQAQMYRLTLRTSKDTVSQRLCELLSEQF

As usually defined, the Kd is the concentration at which binding is half-saturated. Consider SEEQVSKNLFGPPLESAFDHEH [FCHO1 C peptide (residues 426-448 SEEQVSKNLFGPPLESAFDHEH)], for which the Kd with AP2 α-appendage is approximately 50 µM.
NIPDVDEEGYSIKPETNQNDTKENHFYSSSDSDSEDEEPKKYRI (domain or fragment, human, UniProt Q0JRZ9 314-357, looked up) [FCHO2N1+N2] displayed a Kd with Cμ2 of approximately 25 µM.

B1: FCHO1 linker (residues 316-444) (domain or fragment)
chain: TCPEVDEEGFTVRPDVTQNSTAEPSRFSSSDSDFDDEEPRKFYVHIKPAPARAPACSPEAAAAQLRATAGSLILPPGPGGTMKRHSSRDAAGKPQRPRSAPRTSSCAERLQSEEQVSKNLFGPPLESAF
For B1, in the assay with recombinant AP2 core, the Kd was determined as 8.5 ± 2.2 µM.

B2: FCHO2 linker (residues 314-444) (domain or fragment)
chain: NIPDVDEEGYSIKPETNQNDTKENHFYSSSDSDSEDEEPKKYRIEIKPMHPNNSHHTMASLDELKVSIGNITLSPAISRHSPVQMNRNLSNEELTKSKPSAPPNEKGTSDLLAWDPLFGPSLDSSSSSSLT
Turning to B2, in the assay with recombinant AP2 core, the Kd amounted to 9.8 ± 1.5 µM.
